Assay [1] concerns the target T1, secreted, soluble furin (human, UniProt P09958 108-715, limits assumed).
T1 construct: Secreted, soluble construct; also called human furin
Nature of the assay: rapid inhibition assay; listed as potent inhibitor of furin. The protocol: (§1) 5. Rapid protease inhibition assay. Novel eglin variants were diluted 50-fold and incubated with secreted, soluble furin (0.5 nM) for 15 min in 96-well plates. The furin substrate (Boc-Arg-Val-Arg-Arg-MCA) was added, and release of AMC was monitored continuously in a 96-well fluorescence plate reader for 20 min, as described under Example 1. […] The plasmid DNA encoding such eglin c variant inhibitors were isolated and sequenced.

The next assay has as its target human plasma kallikrein (human, UniProt P03952 20-638). The assay is described as follows: enzyme inhibition; weak inhibition.
In the next assay the target is human plasmin (human, UniProt P00747 97-810, limits assumed). Nature of the assay: enzyme inhibition; weak inhibition.
The target of assay [2] is T2, secreted, soluble Kex2 (Saccharomyces cerevisiae, UniProt P13134 114-613, limits assumed).
T2 construct: Secreted, soluble construct; also called kexin
T2 sequence (looked up): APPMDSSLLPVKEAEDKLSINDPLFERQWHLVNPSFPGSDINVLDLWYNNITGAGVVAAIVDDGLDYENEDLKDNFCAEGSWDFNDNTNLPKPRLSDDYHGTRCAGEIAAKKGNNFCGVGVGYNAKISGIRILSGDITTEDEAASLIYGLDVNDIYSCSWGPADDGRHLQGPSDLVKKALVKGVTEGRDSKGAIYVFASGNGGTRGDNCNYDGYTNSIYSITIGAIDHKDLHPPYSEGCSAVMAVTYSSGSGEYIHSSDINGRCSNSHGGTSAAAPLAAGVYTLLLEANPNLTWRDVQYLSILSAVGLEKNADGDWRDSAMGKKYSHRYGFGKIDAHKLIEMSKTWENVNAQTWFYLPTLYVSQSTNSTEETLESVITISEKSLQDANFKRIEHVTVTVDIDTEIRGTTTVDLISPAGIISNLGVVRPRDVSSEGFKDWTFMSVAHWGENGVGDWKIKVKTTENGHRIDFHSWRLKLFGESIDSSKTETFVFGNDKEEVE
Nature of the assay: equilibrium enzyme inhibition. The procedure:
(§2) Thus, R1-eglin refers to substitution of Arg at position P1.
(§3) Affinities of eglin variants with secreted, soluble Kex2 (hereafter “Kex2”; Brenner, C. and Fuller, R. S. (1992) Proc. Natl. Acad. Sci. USA 89: 922-926) and secreted, soluble furin (hereafter, “furin”; Bravo, D. A. et al (1994) J. Biol. Chem. 269: 25830-25837; and Komiyama & Fuller (2000) Biochemistry 39: 15156-15165) were measured by incubating variants with the enzymes (˜0.5 to 2.0 nM) for 45 min to 1 h at 21° C. in one of two enzyme assay buffers. For Kex2, the buffer was 200 mM Bistris (pH 7.27) containing 1 mM CaCl₂ and 0.1% Triton X-100; and for furin, the buffer was 20 mM NaMES (pH 7.0) containing 1 mM CaCl₂ and 0.1% Triton X-100 for furin.

Assay [3] has as its target T1, secreted, soluble furin. The assay is described as follows: equilibrium enzyme inhibition. The protocol:
as §2, §3

The target in assay [4] is T3, subtilisin Carlsberg (UniProt P00780 106-379).
T3 sequence (looked up): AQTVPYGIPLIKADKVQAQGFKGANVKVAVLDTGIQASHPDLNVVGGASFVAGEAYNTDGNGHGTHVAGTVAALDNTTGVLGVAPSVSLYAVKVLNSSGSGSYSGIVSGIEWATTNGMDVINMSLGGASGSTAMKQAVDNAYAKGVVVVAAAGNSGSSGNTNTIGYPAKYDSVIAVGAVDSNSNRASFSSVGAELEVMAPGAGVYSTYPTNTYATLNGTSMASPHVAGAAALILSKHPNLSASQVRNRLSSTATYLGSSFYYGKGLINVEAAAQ
Nature of the assay: enzyme inhibition.

Assay [5] addresses trypsin. The assay is described as follows: enzyme inhibition.
The target of assay [6] is T2, secreted, soluble Kex2. The assay is described as follows: equilibrium enzyme inhibition, fluorogenic substrate. The procedure:
(§4) Affinities of eglin variants with secreted, soluble Kex2 (hereafter “Kex2”; Brenner, C. and Fuller, R. S. (1992) Proc. Natl. Acad. Sci. USA 89: 922-926) and secreted, soluble furin (hereafter, “furin”; Bravo, D. A. et al (1994) J. Biol. Chem. 269: 25830-25837; and Komiyama & Fuller (2000) Biochemistry 39: 15156-15165) were measured by incubating variants with the enzymes (˜0.5 to 2.0 nM) for 45 min to 1 h at 21° C. in one of two enzyme assay buffers. For Kex2, the buffer was 200 mM Bistris (pH 7.27) containing 1 mM CaCl₂ and 0.1% Triton X-100; and for furin, the buffer was 20 mM NaMES (pH 7.0) containing 1 mM CaCl₂ and 0.1% Triton X-100 for furin. 100 to 200 μL aliquots of reaction mixtures were transferred into triplicate wells of opaque 96 well plates (Costar), and residual enzyme activity was measured with an fmax fluorescence micro plate reader (Molecular Devices) by monitoring hydrolysis of a fluorogenic substrate Boc-Arg-Val-Arg-Arg-MCA. Data were graphically analyzed (KaleidaGraph) with an equation developed by Green and Work (1953). Site-directed mutagenesis at P2 and P6 of eglin c generated temporary inhibitors (Table 3) and exhausted possibility to improve affinity further with this approach.

Assay [7] addresses T1, secreted, soluble furin. The assay is described as above. The procedure:
as §4

For assay [8], the target named is T2, secreted, soluble Kex2. The assay is described as follows: estimated from koff. The procedure: In some aspects of the present invention, biological application of the eglin c variants of the present invention as inhibitors of processing in vivo depends upon the rate of binding to target enzymes, where it is critical. Therefore, the rate of action of eglin variants with Kex2 and furin was examined by incubating 5×10⁻¹⁰ M enzyme with inhibitor at molar ratios of inhibitor to enzyme ranging from 10 to 80. […] The relationship between kobs and inhibitor concentration was linear. The values of kₒₙ were determined from the slope of such curves, and dissociation rate constants (koff) were calculated (koff=kₒₙ/Kₐ). For R4R1-eglin, koff was calculated to be 2×10⁻⁴s⁻¹ for Kex2, and 3×10⁻⁴s⁻¹ for furin. […] Similarly, the t_{1/2} of the complex of M4R1-eglin with Kex2 was estimated to be 3 h. For complex of R4K1-eglin with furin, koff was calculated to be 2×10⁻⁴s⁻¹ implying that the koff and t_{1/2} for this complex are similar to those for the complex of R4R1-eglin with furin.

The target of assay [9] is trypsin. The assay is described as follows: enzyme inhibition; temporary inhibitor of trypsin.
Assay [10] addresses T1, secreted, soluble furin. Nature of the assay: ratio of affinities, enzyme inhibition.
The target of another assay is T4, human PC7 (human, UniProt Q16549 142-667, limits assumed).
T4 sequence (looked up): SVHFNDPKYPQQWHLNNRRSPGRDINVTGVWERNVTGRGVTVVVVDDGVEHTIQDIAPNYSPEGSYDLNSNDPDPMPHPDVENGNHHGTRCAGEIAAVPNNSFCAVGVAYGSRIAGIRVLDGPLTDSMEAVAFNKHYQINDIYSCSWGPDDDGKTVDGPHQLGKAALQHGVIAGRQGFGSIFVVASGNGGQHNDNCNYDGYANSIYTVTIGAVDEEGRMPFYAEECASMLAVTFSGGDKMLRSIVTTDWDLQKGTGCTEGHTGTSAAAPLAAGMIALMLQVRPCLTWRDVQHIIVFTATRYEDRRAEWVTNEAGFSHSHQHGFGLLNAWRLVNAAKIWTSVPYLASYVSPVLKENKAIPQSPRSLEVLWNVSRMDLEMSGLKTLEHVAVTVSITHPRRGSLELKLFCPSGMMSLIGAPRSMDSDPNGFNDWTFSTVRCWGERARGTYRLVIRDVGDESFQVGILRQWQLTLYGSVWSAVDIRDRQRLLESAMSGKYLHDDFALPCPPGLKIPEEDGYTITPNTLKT
Nature of the assay: enzyme inhibition, purified variant; Kassoc.

The target of assay [11] is T2, secreted, soluble Kex2. Nature of the assay: enzyme inhibition, purified variant; Kassoc.
Assay [12] deals with T1, secreted, soluble furin. The assay is described as follows: enzyme inhibition, purified variant; Kassoc.
Assay [13] addresses T5, human neutrophil elastase (human, UniProt P08246 30-247).
T5 sequence (looked up): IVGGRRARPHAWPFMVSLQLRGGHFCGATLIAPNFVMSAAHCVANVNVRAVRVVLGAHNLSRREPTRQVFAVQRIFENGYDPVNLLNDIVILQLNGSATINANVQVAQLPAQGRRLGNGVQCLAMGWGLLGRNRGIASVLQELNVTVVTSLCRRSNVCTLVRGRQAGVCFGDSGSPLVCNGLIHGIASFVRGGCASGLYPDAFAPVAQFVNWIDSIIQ
The assay is described as follows: enzyme inhibition, standard assay conditions.

The target of another assay is chymotrypsin. The assay is described as follows: enzyme inhibition, standard assay conditions.
In assay [14] the target is T3, subtilisin Carlsberg. The assay is described as follows: enzyme inhibition, standard assay conditions.
In assay [15] the target is T2, secreted, soluble Kex2. The assay is described as follows: rapid inhibition assay; listed as potent inhibitor of Kex2.
The target of assay [16] is T1, secreted, soluble furin. The assay is described as follows: rapid furin inhibition assay; table lists substitutions with equal or enhanced inhibition of furin relative to the template. The protocol: 3. Rapid screening of libraries. Libraries were introduced into E. coli BL21 (DE3) cells and individual, cloned transformants were grown by shaking at 37° C. in 200 μl LB containing […] kanamycin in 96-well, 0.45 μm GHP membrane filter plates (Gelman) (FIG. 2). When O.D. 600 values reached 0.4, 60 μl of culture were transferred to secondary 96-well plates (Falcon), adjusted to 10% glycerol, and stored at −80° C. These frozen stocks served as master copies of the libraries. IPTG was added to the cultures to a final concentration of 1 mM, and the cultures were allowed to express eglin c variants for one hour in the filter plate. Expressed eglin c variants were extracted from the cells with 50 mM Tris-HCl pH 8.0 containing 2 mM EDTA following freezing and thawing. These extracts were collected as filtrates by centrifugation of the filter plate above a second plate. The filtrates, representing partially purified eglin c variants, were analyzed using a rapid fluorescence-based assay for processing enzyme inhibition as described below in Section 5. […] Frozen cells were cultured in 50 to 100 ml culture volumes, and DNA maxipreps were performed; the DNA preparations were then sequenced by automated DNA sequencing. Selected variants were expressed and purified on a larger scale, and affinities for furin or Kex2 were examined quantitatively (see below).
as §1

Where a chain is given by its changes, count along the chain named.

Results on 8 molecules are retold here after patent publication US20050203007A1 (REGENTS OF THE UNIVERSITY OF MICHIGAN, published 2005).

T1 sequence (P09958 108-715 limits assumed): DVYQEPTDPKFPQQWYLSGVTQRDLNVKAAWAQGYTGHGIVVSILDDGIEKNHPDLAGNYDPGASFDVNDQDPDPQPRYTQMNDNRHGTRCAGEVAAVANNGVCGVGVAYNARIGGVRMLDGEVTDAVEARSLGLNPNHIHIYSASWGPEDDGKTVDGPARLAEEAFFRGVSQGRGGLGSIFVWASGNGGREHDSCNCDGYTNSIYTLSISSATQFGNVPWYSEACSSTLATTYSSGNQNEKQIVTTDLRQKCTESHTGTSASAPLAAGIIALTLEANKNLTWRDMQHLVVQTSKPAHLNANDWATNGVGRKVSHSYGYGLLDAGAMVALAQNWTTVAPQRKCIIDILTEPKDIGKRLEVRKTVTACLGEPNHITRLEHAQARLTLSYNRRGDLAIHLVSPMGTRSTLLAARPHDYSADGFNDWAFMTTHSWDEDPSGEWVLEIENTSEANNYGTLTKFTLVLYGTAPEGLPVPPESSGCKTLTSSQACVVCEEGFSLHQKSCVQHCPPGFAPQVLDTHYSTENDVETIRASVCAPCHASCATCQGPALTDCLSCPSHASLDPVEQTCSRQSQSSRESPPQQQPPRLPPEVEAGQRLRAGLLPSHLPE
Chain of trypsin (P00760 24-246): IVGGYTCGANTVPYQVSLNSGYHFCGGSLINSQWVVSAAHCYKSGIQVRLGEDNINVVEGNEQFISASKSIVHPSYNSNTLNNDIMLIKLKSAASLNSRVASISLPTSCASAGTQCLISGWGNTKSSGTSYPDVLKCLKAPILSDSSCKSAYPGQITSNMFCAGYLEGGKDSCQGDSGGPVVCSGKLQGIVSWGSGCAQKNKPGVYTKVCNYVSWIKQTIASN
Chain of human plasmin (P00747 97-810 limits assumed): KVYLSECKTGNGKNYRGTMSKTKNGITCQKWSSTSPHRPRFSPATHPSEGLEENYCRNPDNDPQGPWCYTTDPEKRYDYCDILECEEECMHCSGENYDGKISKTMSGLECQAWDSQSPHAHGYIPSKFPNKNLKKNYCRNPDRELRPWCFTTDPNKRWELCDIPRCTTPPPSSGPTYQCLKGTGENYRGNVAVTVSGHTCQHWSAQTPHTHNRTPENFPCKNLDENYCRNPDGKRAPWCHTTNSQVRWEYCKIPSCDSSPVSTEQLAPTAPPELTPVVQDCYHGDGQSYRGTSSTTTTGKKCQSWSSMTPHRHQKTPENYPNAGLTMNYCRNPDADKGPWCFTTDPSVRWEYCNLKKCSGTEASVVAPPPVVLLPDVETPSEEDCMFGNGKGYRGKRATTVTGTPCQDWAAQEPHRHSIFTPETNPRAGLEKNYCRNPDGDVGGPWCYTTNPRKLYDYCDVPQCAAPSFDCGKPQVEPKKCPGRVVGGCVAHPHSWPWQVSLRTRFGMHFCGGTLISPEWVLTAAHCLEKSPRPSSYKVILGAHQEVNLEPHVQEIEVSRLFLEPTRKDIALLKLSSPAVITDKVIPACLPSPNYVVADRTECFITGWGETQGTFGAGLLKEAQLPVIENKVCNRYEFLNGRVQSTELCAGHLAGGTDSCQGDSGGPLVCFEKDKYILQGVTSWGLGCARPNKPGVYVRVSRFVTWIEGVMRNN
Chain of human plasma kallikrein (P03952 20-638 limits assumed): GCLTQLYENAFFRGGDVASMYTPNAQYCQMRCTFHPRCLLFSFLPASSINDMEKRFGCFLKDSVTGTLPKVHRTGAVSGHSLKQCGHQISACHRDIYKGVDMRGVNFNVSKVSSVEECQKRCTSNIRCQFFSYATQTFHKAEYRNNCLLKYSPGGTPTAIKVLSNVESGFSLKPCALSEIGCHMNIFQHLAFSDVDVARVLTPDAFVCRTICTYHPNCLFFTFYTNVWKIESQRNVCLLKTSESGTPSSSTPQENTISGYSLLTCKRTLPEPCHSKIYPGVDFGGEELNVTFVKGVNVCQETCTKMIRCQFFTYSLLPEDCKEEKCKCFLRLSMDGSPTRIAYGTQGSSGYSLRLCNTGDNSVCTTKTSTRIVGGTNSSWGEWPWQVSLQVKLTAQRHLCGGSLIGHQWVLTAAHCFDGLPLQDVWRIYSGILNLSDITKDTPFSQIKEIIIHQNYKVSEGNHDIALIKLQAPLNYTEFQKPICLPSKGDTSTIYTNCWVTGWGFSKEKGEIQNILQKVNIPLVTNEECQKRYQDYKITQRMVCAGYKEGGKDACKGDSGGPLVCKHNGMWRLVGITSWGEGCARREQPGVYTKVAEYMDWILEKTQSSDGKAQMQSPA

B1: Gly49-R4R1-eglin (Tyr49 to Gly) (designed binder)
chain: SMGSELKSFPEVVGKTVDQAREYFTLHYPQYDVYFLPEGSRVTRDLRGNRVRVFYNPGTNVVNHVPHVG
notes: tested as partially purified extract
In the case of B1, the binding result with secreted, soluble furin [1] is “binds”.

B2: R1-eglin (designed binder)
chain: B1 chain with R41P, G48Y
notes: also called Arg45-eglin c
Regarding B2, the Ka is around 1e+06 M⁻¹ in the assay with human plasma kallikrein, around 1e+06 M⁻¹ in the assay with human plasmin, 1e+10 M⁻¹ with subtilisin Carlsberg [4] and 1.8e+10 M⁻¹ with trypsin [5]. For the same molecule, the “fold increase in affinity relative to L1-eglin” value was 10000 fold with secreted, soluble Kex2 [2] and 2.5 fold with secreted, soluble furin [3]. Further, the “fold enhancement of affinity relative to L1-eglin” value with secreted, soluble furin [3] lay in the range of 2 to 3 fold. Moreover, the Ki with secreted, soluble Kex2 [6] worked out at 0.03 µM; with secreted, soluble furin [7], 53 µM.

B3: M4R1-eglin (designed binder)
chain: B1 chain with R41M, G48Y
notes: N-terminal Met removed
Turning to B3, in the assay with secreted, soluble Kex2 [8], the “half-life (t1/2) of the complex” value was 3 h. Further, in the assay with secreted, soluble Kex2 [2], the “fold higher affinity of Kex2 than of furin” value is around 10000 fold, the “fold increase in Ka relative to R1-eglin” value came to 88 fold and the “fold increase in affinity relative to L1-eglin” value was 1.5e+06 fold. In addition, in the assay with secreted, soluble furin [3], the “fold increase in affinity relative to L1-eglin” value came out at 33 fold and the “fold increase in affinity relative to R1-eglin” value amounted to 15 fold. Moreover, in the assay with subtilisin Carlsberg [4], the Ka turned out to be 6.6e+10 M⁻¹. In the assay with trypsin [9], this molecule had a Ka of 4.4e+10 M⁻¹. In the assay with secreted, soluble Kex2 [6], this molecule registered a Ki of 0.00034 µM. In the assay with secreted, soluble furin [7], affinity was put at a Ki of 3.6 µM.

B4: V33D49-R4R1-eglin (designed binder)
chain: B1 chain with D32V, G48D
notes: N-terminal Met removed; also called Asp49Val33-R4R1-eglin-c
Take B4: the “fold preference for furin over PC7” value with secreted, soluble furin [10] turned out to be 42 fold. Also, the Ka with human PC7 was 8.7e+07 M⁻¹; in the assay with secreted, soluble Kex2 [11], 2.4e+10 M⁻¹; with secreted, soluble furin [12], 3.7e+09 M⁻¹.

B5: L1-eglin (other)
chain: B1 chain with R41P, R44L, G48Y
notes: Recombinant eglin with the natural reactive site loop; also called wild type eglin; wild type eglin (Leu45)
Regarding B5, the Ka stood at 4.5e+10 M⁻¹ in assay [13], 1.1e+10 M⁻¹ with chymotrypsin and 6.7e+10 M⁻¹ with subtilisin Carlsberg [14]. In addition, the inhibitory constant (Ki) was around 500 µM with secreted, soluble Kex2 [6] and 120 µM in the assay with secreted, soluble furin [7].

B6: Val49-R4R1-eglin (Tyr49 to Val) (designed binder)
chain: B1 chain with G48V
notes: as for B1
Turning to B6, the binding result with secreted, soluble Kex2 [15] is on record as “binds”.

B7: Tyr49Cys-R4R1-eglin (designed binder)
chain: B1 chain with G48C
notes: N-terminal Met removed; also called the Cys variant
As to B7, the binding result with secreted, soluble furin [16] is “binds”; in the assay with secreted, soluble Kex2 [15] it was “binds”.

B8: Pro38Leu Tyr49Cys R4R1-eglin (designed binder)
chain: B1 chain with P37L, G48C
notes: as for B1
B8: the binding result with secreted, soluble furin [1] was “binds”.
